Measured values as given in IntAct's records for PubMed 22087322.

B1: Interleukin-10 receptor subunit alpha (Homo sapiens), Q13651 (parent)
chain: MLPCLVVLLAALLSLRLGSDAHGTELPSPPSVWFEAEFFHHILHWTPIPNQSESTCYEVALLRYGIESWNSISNCSQTLSYDLTAVTLDLYHSNGYRARVRAVDGSRHSNWTVTNTRFSVDEVTLTVGSVNLEIHNGFILGKIQLPRPKMAPANDTYESIFSHFREYEIAIRKVPGNFTFTHKKVKHENFSLLTSGEVGEFCVQVKPSVASRSNKGMWSKEECISLTRQYFTVTNVIIFFAFVLLLSGALAYCLALQLYVRRRKKLPSVLLFKKPSPFIFISQRPSPETQDTIHPLDEEAFLKVSPELKNLDLHGSTDSGFGSTKPSLQTEEPQFLLPDPHPQADRTLGNREPPVLGDSCSSGSSNSTDSGICLQEPSLSPSTGPTWEQQVGSNSRGQDDSGIDLVQNSEGRAGDTQGGSALGHHSPPEPEVPGEEDPAAVAFQGYLRQTRCAEEKATKTGCLEEESPLTDGLGPKFGRCLVDEAGLHPPALAKGYLKQDPLEMTLASSGAPTGQWNQPTEEWSLLALSSCSDLGISDWSFAHDLAPLGCVAAPGGLLGSFNSDLVTLPLISSLQSSE
B2: Interleukin-10 receptor subunit alpha (Mus musculus), Q61727 (parent)
chain: MLSRLLPFLVTISSLSLEFIAYGTELPSPSYVWFEARFFQHILHWKPIPNQSESTYYEVALKQYGNSTWNDIHICRKAQALSCDLTTFTLDLYHRSYGYRARVRAVDNSQYSNWTTTETRFTVDEVILTVDSVTLKAMDGIIYGTIHPPRPTITPAGDEYEQVFKDLRVYKISIRKFSELKNATKRVKQETFTLTVPIGVRKFCVKVLPRLESRINKAEWSEEQCLLITTEQYFTVTNLSILVISMLLFCGILVCLVLQWYIRHPGKLPTVLVFKKPHDFFPANPLCPETPDAIHIVDLEVFPKVSLELRDSVLHGSTDSGFGSGKPSLQTEESQFLLPGSHPQIQGTLGKEESPGLQATCGDNTDSGICLQEPGLHSSMGPAWKQQLGYTHQDQDDSDVNLVQNSPGQPKYTQDASALGHVCLLEPKAPEEKDQVMVTFQGYQKQTRWKAEAAGPAECLDEEIPLTDAFDPELGVHLQDDLAWPPPALAAGYLKQESQGMASAPPGTPSRQWNQLTEEWSLLGVVSCEDLSIESWRFAHKLDPLDCGAAPGGLLDSLGSNLVTLPLISSLQVEE

Variants of: B1
Conditions: with fbw1a_human BTRC

Row | Variant | effect of a mutation on the interaction
1 | MLPCLVVLLAALLSLRLGSDAHGTELPSPPSVWFEAEFFHHILHWTPIPNQSESTCYEVALLRYGIESWNSISNCSQTLSYDLTAVTLDLYHSNGYRARVRAVDGSRHSNWTVTNTRFSVDEVTLTVGSVNLEIHNGFILGKIQLPRPKMAPANDTYESIFSHFREYEIAIRKVPGNFTFTHKKVKHENFSLLTSGEVGEFCVQVKPSVASRSNKGMWSKEECISLTRQYFTVTNVIIFFAFVLLLSGALAYCLALQLYVRRRKKLPSVLLFKKPSPFIFISQRPSPETQDTIHPLDEEAFLKVSPELKNLDLHGSTDSGFGSTKPSLQTEEPQFLLPDPHPQADRTLGNREPPVLGDSCSSGSSNSTDAGICLQEPSLSPSTGPTWEQQVGSNSRGQDDSGIDLVQNSEGRAGDTQGGSALGHHSPPEPEVPGEEDPAAVAFQGYLRQTRCAEEKATKTGCLEEESPLTDGLGPKFGRCLVDEAGLHPPALAKGYLKQDPLEMTLASSGAPTGQWNQPTEEWSLLALSSCSDLGISDWSFAHDLAPLGCVAAPGGLLGSFNSDLVTLPLISSLQSSE [S370A] | decreasing interaction strength
2 | MLPCLVVLLAALLSLRLGSDAHGTELPSPPSVWFEAEFFHHILHWTPIPNQSESTCYEVALLRYGIESWNSISNCSQTLSYDLTAVTLDLYHSNGYRARVRAVDGSRHSNWTVTNTRFSVDEVTLTVGSVNLEIHNGFILGKIQLPRPKMAPANDTYESIFSHFREYEIAIRKVPGNFTFTHKKVKHENFSLLTSGEVGEFCVQVKPSVASRSNKGMWSKEECISLTRQYFTVTNVIIFFAFVLLLSGALAYCLALQLYVRRRKKLPSVLLFKKPSPFIFISQRPSPETQDTIHPLDEEAFLKVSPELKNLDLHGSTDAGFGATKPSLQTEEPQFLLPDPHPQADRTLGNREPPVLGDSCSSGSSNSTDAGICLQEPSLSPSTGPTWEQQVGSNSRGQDDSGIDLVQNSEGRAGDTQGGSALGHHSPPEPEVPGEEDPAAVAFQGYLRQTRCAEEKATKTGCLEEESPLTDGLGPKFGRCLVDEAGLHPPALAKGYLKQDPLEMTLASSGAPTGQWNQPTEEWSLLALSSCSDLGISDWSFAHDLAPLGCVAAPGGLLGSFNSDLVTLPLISSLQSSE [S319A;S323A;S370A] | disrupting interaction strength
3 | MLPCLVVLLAALLSLRLGSDAHGTELPSPPSVWFEAEFFHHILHWTPIPNQSESTCYEVALLRYGIESWNSISNCSQTLSYDLTAVTLDLYHSNGYRARVRAVDGSRHSNWTVTNTRFSVDEVTLTVGSVNLEIHNGFILGKIQLPRPKMAPANDTYESIFSHFREYEIAIRKVPGNFTFTHKKVKHENFSLLTSGEVGEFCVQVKPSVASRSNKGMWSKEECISLTRQYFTVTNVIIFFAFVLLLSGALAYCLALQLYVRRRKKLPSVLLFKKPSPFIFISQRPSPETQDTIHPLDEEAFLKVSPELKNLDLHGSTDAGFGATKPSLQTEEPQFLLPDPHPQADRTLGNREPPVLGDSCSSGSSNSTDSGICLQEPSLSPSTGPTWEQQVGSNSRGQDDSGIDLVQNSEGRAGDTQGGSALGHHSPPEPEVPGEEDPAAVAFQGYLRQTRCAEEKATKTGCLEEESPLTDGLGPKFGRCLVDEAGLHPPALAKGYLKQDPLEMTLASSGAPTGQWNQPTEEWSLLALSSCSDLGISDWSFAHDLAPLGCVAAPGGLLGSFNSDLVTLPLISSLQSSE [S319A;S323A] | decreasing interaction strength

Variants of: B2
Conditions: with fbw1a_human BTRC

Row | Variant | effect of a mutation on the interaction
4 | MLSRLLPFLVTISSLSLEFIAYGTELPSPSYVWFEARFFQHILHWKPIPNQSESTYYEVALKQYGNSTWNDIHICRKAQALSCDLTTFTLDLYHRSYGYRARVRAVDNSQYSNWTTTETRFTVDEVILTVDSVTLKAMDGIIYGTIHPPRPTITPAGDEYEQVFKDLRVYKISIRKFSELKNATKRVKQETFTLTVPIGVRKFCVKVLPRLESRINKAEWSEEQCLLITTEQYFTVTNLSILVISMLLFCGILVCLVLQWYIRHPGKLPTVLVFKKPHDFFPANPLCPETPDAIHIVDLEVFPKVSLELRDSVLHGSTDAGFGAGKPSLQTEESQFLLPGSHPQIQGTLGKEESPGLQATCGDNTDSGICLQEPGLHSSMGPAWKQQLGYTHQDQDDSDVNLVQNSPGQPKYTQDASALGHVCLLEPKAPEEKDQVMVTFQGYQKQTRWKAEAAGPAECLDEEIPLTDAFDPELGVHLQDDLAWPPPALAAGYLKQESQGMASAPPGTPSRQWNQLTEEWSLLGVVSCEDLSIESWRFAHKLDPLDCGAAPGGLLDSLGSNLVTLPLISSLQVEE [S320A;S324A] | decreasing interaction strength
5 | MLSRLLPFLVTISSLSLEFIAYGTELPSPSYVWFEARFFQHILHWKPIPNQSESTYYEVALKQYGNSTWNDIHICRKAQALSCDLTTFTLDLYHRSYGYRARVRAVDNSQYSNWTTTETRFTVDEVILTVDSVTLKAMDGIIYGTIHPPRPTITPAGDEYEQVFKDLRVYKISIRKFSELKNATKRVKQETFTLTVPIGVRKFCVKVLPRLESRINKAEWSEEQCLLITTEQYFTVTNLSILVISMLLFCGILVCLVLQWYIRHPGKLPTVLVFKKPHDFFPANPLCPETPDAIHIVDLEVFPKVSLELRDSVLHGSTDAGFGAGKPSLQTEESQFLLPGSHPQIQGTLGKEESPGLQATCGDNTDAGICLQEPGLHSSMGPAWKQQLGYTHQDQDDSDVNLVQNSPGQPKYTQDASALGHVCLLEPKAPEEKDQVMVTFQGYQKQTRWKAEAAGPAECLDEEIPLTDAFDPELGVHLQDDLAWPPPALAAGYLKQESQGMASAPPGTPSRQWNQLTEEWSLLGVVSCEDLSIESWRFAHKLDPLDCGAAPGGLLDSLGSNLVTLPLISSLQVEE [S320A;S324A;S367A] | disrupting interaction strength
